In PMC2733336 (Insect biochemistry and molecular biology, 2009):

B1: cLac2 (endogenous cuticular laccase-2) (Manduca sexta) (protein)
chain: RRNPALSAPDECARACRENEPPRICYYHFTLELYTVMGAACQVCAPNATNVVWSHCQCVLADGVERGILTANRMLPGPSIQACENDKVVIDVENHMEGMEVTIHWHGIWQRGSQYYDGVPFVTQCPIQQGNTFRYQWQGNAGTHFWHAHTGLQKLDGLYGSIVVRQPPSKDPNSHLYDYDLTTHVMLISDWLHDDAAERYPGRLAVNTGQDPESVLINGKGQFRDPNTGFMTNTPLETFTITAGRRYRFRMINAFASVCPAQVTFEGHNLTVIATDGEPVQPVQVNTIISFSGERYDFVIEANNIPGAYWIQVRGLGECGIKRAQQLGILRYARGPYQPSLPAPTYDIGIPQGVVMNPLDARCNILRNDAICVSQLKNAKHIDPAILQERPDIKIFLPFRFFVYGPETLFQPNTYNRYLVAPSGDHVISLIDEISYMSPPAPLLSQYDDINPEQFCNGDNRPANCGQNCMCTHKVDIPLNAVVEIVLVDEVQITNLSHPFHLHGYAYNVIGIGRSPDQNVKKINLKHALDLDRRGLLERHLKQGDLPPAKDTIAVPNSGYVILRFRATNPGFWLLHCHFLFHIVIGMSLVLQVGTQADLPPVPPGFPTCGDHLPPIPLH
B2: rLac2 (full-length recombinant laccase-2) (Manduca sexta) (protein)
chain: VRVVPKRKKEAINVPDDQSTSASWWQAGTATPFRESSNSFSSTHGLVQTHPTADDPFGSSFGGIGSTIGPSSNPYGHSGSGPLSGGVRNNPLPSIARSANGKLSLKHLDFTSSATAELRRNPALSAPDECARACRENEPPRICYYHFTLELYTVMGAACQVCAPNATNVVWSHCQCVLADGVERGILTANRMLPGPSIQACENDKVVIDVENHMEGMEVTIHWHGIWQRGSQYYDGVPFVTQCPIQQGNTFRYQWQGNAGTHFWHAHTGLQKLDGLYGSIVVRQPPSKDPNSHLYDYDLTTHVMLISDWLHDDAAERYPGRLAVNTGQDPESVLINGKGQFRDPNTGFMTNTPLETFTITAGRRYRFRMINAFASVCPAQVTFEGHNLTVIATDGEPVQPVQVNTIISFSGERYDFVIEANNIPGAYWIQVRGLGECGIKRAQQLGILRYARGPYQPSLPAPTYDIGIPQGVVMNPLDARCNILRNDAICVSQLKNAKHIDPAILQERPDIKIFLPFRFFVYGPETLFQPNTYNRYLVAPSGDHVISLIDEISYMSPPAPLLSQYDDINPEQFCNGDNRPANCGQNCMCTHKVDIPLNAVVEIVLVDEVQITNLSHPFHLHGYAYNVIGIGRSPDQNVKKINLKHALDLDRRGLLERHLKQGDLPPAKDTIAVPNSGYVILRFRATNPGFWLLHCHFLFHIVIGMSLVLQVGTQADLPPVPPGFPTCGDHLPPIPLH

Experiments:
[1] = target: T1, rLac2 (full-length recombinant laccase-2) (Manduca sexta, UniProt Q8I8Y0); assay: spectrophotometric, quinone formation at […] nm; assay type: biochemical; settings: substrate inhibition (uncompetitive) constant; 100 mM sodium citrate pH 5; air
T1 sequence (Q8I8Y0 24-760): B2 chain

[2] = target: T2, cLac2 (endogenous cuticular laccase-2) (Manduca sexta, UniProt Q8I8Y0); assay: spectrophotometric, quinone formation at […] nm; assay type: biochemical; settings: substrate inhibition (uncompetitive) constant; 100 mM sodium citrate pH 5; air
T2 sequence (Q8I8Y0 142-760): B1 chain

purified protein [3] = substrate: CC(=O)NCCc1ccc(O)c(O)c1; assay: purified protein; assay type: biochemical, Manduca sexta; settings: 100 mM sodium citrate pH 5, air
purified protein [4] = substrate: CCn1c(=NN=c2sc3cc(S(=O)(=O)O)ccc3n2CC)sc2cc(S(=O)(=O)O)ccc21; assay: purified protein; assay type: biochemical, Manduca sexta; settings: 100 mM sodium citrate pH 5, air, data not shown

Molecule	Ksi [1] [mM]	Ksi [2] [mM]	Km (purified protein [3]) [µM]	Vmax (purified protein [3]) [µM/min]	kcat (purified protein [3]) [s⁻¹]	kcat/Km (purified protein [3]) [M⁻¹ s⁻¹]	Km (purified protein [4]) [µM]	kcat (purified protein [4]) [s⁻¹]
NCCC(=O)NCCc1ccc(O)c(O)c1 [NBAD]	6.7 ± 1.4	9.7 ± 1.3	–	–	–	–	–	–
B1	–	–	630 ± 50	10.5 ± 0.25	4.83 ± 0.117	7670	1500	7.67
B2	–	–	460 ± 50	3.1 ± 0.1	1.67 ± 0.05	3670	–	–
